Reference: PMC6726571
Residue numbers refer to the chain shown, from its start. Where two headings read alike, the source gives them in different places.

T1: SRSF3 (SRp20), recombinant (UniProt P84103 1-164)
T1 sequence: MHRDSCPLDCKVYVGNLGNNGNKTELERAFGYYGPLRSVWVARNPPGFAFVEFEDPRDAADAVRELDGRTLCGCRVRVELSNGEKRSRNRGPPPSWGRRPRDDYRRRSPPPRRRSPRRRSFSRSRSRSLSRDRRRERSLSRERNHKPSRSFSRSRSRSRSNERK

B1: CPEB2 exon 4 WT RNA, biotinylated (ssRNA)
RNA: GUGAGAUCUAGUUUGCAGUUGCCAGCUUGGGGCUCAGAUUCACUCCAAGAUAGUUGGUGCACUGCAGCCGGAACAUCCAGAAUAGACCAG
B2: CPEB2 exon 4 MUT RNA (CAUCC to GAGUC), biotinylated (ssRNA)
RNA: B1 RNA with C74G, U76G, C77U

Assays:
[1] = molecular target: T1, SRSF3 (SRp20), recombinant; test: pull-down
[2] = molecular target: T1, SRSF3 (SRp20), recombinant; test: pull-down; remark: listed apart in the source

Row | Binder | binding result [1] | binding result [2]
1 | B1 | binds | 
2 | B2 |  | no binding
